Reference: patent US20250154217A1 (ZONHON BIOPHARMA INSTITUTE, published 2025)

Key:
Experiment in all cases: BLI (Fortebio)
IL-2Rβ(CD122) = molecular target: T1, IL-2Rβ(CD122) (UniProt P14784 27-239, limits assumed)
T1 construct: also called IL-2β
T1 sequence (looked up): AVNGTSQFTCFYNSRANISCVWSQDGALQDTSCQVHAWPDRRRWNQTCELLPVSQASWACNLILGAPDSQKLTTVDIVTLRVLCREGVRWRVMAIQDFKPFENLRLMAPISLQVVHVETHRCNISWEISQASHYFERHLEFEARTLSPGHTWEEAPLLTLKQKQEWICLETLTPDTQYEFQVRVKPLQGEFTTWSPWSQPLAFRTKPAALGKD
Method: (§1) The affinity between IL-2 mutants and their receptors was detected by Bio-Layer Interferometry (BLI).
(§2) Receptor solution: IL-2Rα(CD25), IL-2Rβ(CD122) and IL-2Rβ/γ receptor samples were diluted to 15-20 μg/mL with 1×Kinetics buffer, mixed and stored in a dark place.
(§3) Samples were added to the sample wells according to the protocol design, and 200 μL of reagent or sample was added to each well.

IL-2Rα(CD25) = molecular target: T2, IL-2Rα(CD25) (UniProt P01589 22-213, limits assumed)
T2 construct: also called IL-2α
T2 sequence (looked up): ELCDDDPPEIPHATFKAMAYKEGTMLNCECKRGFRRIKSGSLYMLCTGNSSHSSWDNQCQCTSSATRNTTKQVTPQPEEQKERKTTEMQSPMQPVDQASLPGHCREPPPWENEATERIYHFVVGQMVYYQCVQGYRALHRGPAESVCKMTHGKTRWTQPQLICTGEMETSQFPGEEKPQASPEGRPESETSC
Method: as §1, §2, §3

IL-2Rβ/γ receptor = molecular target: T3, IL-2Rβ/γ receptor (UniProt P14784 27-239; P31785 23-262, limits assumed)
T3 sequence (looked up) 1: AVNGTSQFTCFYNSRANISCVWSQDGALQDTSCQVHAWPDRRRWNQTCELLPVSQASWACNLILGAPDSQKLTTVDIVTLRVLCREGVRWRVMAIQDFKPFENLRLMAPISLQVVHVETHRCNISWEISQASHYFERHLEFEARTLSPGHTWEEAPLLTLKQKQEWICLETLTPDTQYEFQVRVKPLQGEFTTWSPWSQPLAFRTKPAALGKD
T3 sequence (looked up) 2: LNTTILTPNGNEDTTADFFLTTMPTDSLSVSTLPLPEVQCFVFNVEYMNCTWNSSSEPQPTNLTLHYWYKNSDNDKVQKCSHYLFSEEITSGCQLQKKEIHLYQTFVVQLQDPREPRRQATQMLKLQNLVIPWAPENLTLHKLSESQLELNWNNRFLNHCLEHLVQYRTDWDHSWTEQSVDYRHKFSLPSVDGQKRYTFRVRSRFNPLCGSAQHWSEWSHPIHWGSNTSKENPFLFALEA
Method: as §1, §2, §3

B1: IL-2 mutant G438 (ligand)
chain: APTSSSTRKTQLQLEHLLLDLQMILNGINNYKNPKLTRMLTFKFYMPWKATELKHLQCLEEELKPLEEVLNLAQSKNFHLRPRDLISNINVIVLELKGSETTFMCEYADETATIVEFLNRWITFAQSIISTLT
- Kd (IL-2Rβ(CD122)): 15.3 nM
- Kd (IL-2Rα(CD25)): 13.4 nM

B2: IL-2 mutant G438P1 (ligand)
chain: APTSSSTRKTQLQLEHLMSDLQMILNGINNYKNPKLTRMLTFKFYMPWKATELKHLQCLEEELKPLEEVLNLAQSKNFHLRPRDLISNINVIVLELKGSETTFMCEYADETATIVEFLNRWITFAQSIISTLT
notes: also called GP1
- Kd (IL-2Rβ(CD122)): 18.3 nM
- Kd (IL-2Rα(CD25)): 17.9 nM

B3: IL-2 mutant G438P2 (ligand)
chain: APTSSSTRKTQLQLEHLLLDLQMILNGINNYKNPELTRMLTFDFYMPWKATELKHLQCLEEELKPLEEVLNLAQSKNFHLRPRDLISNINVIVLELKGSETTFMCEYADETATIVEFLNRWITFAQSIISTLT
notes: also called GP2
- Kd (IL-2Rβ(CD122)): 18.3 nM
- Kd (IL-2Rα(CD25)): 68.9 nM

B4: IL-2 mutant G438P3 (ligand)
chain: APTSSSTRKTQLQLEHLLLDLQMILNCINNYKNPKLTRMLTFKFYMPWKATELKHLQCLEEELKPLEEVLNLAQSKNCHLRPRDLISNINVIVLELKGSETTFMCEYADETATIVEFLNRWITFAQSIISTLT
notes: also called GP3
- Kd (IL-2Rβ(CD122)): 12.1 nM
- Kd (IL-2Rα(CD25)): 26.4 nM

B5: IL-2 mutant G438P6 (ligand)
chain: APTSSSTRKTQLQLEHLLLDLQMILNGINNYKNPKLTRMLTADFYMPWKATELKHLQCLEEELKPLEEVLNLAQSKNFHLRPRDLISNINVIVLELKGSETTFMCEYADETATIVEFLNRWITFAQSIISTLT
notes: also called GP6
- Kd (IL-2Rβ(CD122)): 52.3 nM
- Kd (IL-2Rα(CD25)): 119 nM

B6: IL-2 mutant G438P7 (ligand)
chain: APTSSSTRKTQLQLEHLLLDLQMILNGINNYKNPKLTEMLEFKFYMPWKATELKHLQCLEEELKPLEEVLNLAQSKNFHLRPRDLISNINVIVLELKGSETTFMCEYADETATIVEFLNRWITFAQSIISTLT
notes: also called GP7
- Kd (IL-2Rβ(CD122)): 64.2 nM
- Kd (IL-2Rβ/γ receptor): 35.4 nM
- Kd (IL-2Rα(CD25)): 178000 nM

B7: IL-2 mutant G438P8 (ligand)
chain: APTSSSTRKTQLQLEHLLLDLQMILNGINNYKNPKLTRMLTFKFYMPWKATELKHLQCLEEELKPLEEVLNFAQSKNFHLDPRDLISNINVIVLELKGSETTFMCEYADETATIVEFLNRWITFAQSIISTLT
notes: also called GP8
- Kd (IL-2Rβ(CD122)): 12 nM
- Kd (IL-2Rβ/γ receptor): 32.7 nM
- Kd (IL-2Rα(CD25)): 131 nM

B8: IL-2 mutant G438P9 (ligand)
chain: APTSSSTRKTQLQLEHLMSDLQMILNGINNYKNPKLTRMLTAKFYMPWKATELKHLQCLEEELKPLEEVLNLAQSKNFHLRPRDLISNINVIVLELKGSETTFMCEYADETATIVEFLNRWITFAQSIISTLT
notes: also called GP9
- Kd (IL-2Rβ(CD122)): 26.4 nM
- Kd (IL-2Rα(CD25)): 34.7 nM

B9: IL-2 mutant G438P10 (ligand)
chain: APTSSSTRKTQLQLEHLMSDLQMILNGINNYKNPKLTRMLTFKFYMPWKATELKHLQCLEEELKPLEEVLNLAQSKNFELDPRDLISNINVIVLELKGSETTFMCEYADETATIVEFLNRWITFAQSIISTLT
notes: also called GP10
- Kd (IL-2Rβ(CD122)): 30.5 nM
- Kd (IL-2Rα(CD25)): 36.1 nM

B10: IL-2 mutant G438P14 (ligand)
chain: APTSSSTRKTQLQLEHLMSDLQMILNGINNYKNPKLTEMLEFKFYMPWKATELKHLQCLEEELKPLEEVLNLAQSKNFHLRPRDLISNINVIVLELKGSETTFMCEYADETATIVEFLNRWITFAQSIISTLT
notes: also called GP14
- Kd (IL-2Rβ(CD122)): 42600 nM
- Kd (IL-2Rβ/γ receptor): 39.6 nM
- binding result (IL-2Rα(CD25)): no binding

B11: IL-2 mutant G438P15 (ligand)
chain: APTSSSTRKTQLQLEHLMSDLQMILNGINNYKNPKLTEMLEFKFRMPWKATELKHLQCLEEELKPLEEVLNFAQSKNFHLRPRDLISNINVIVLELKGSETTFMCEYADETATIVEFLNRWITFAQSIISTLT
notes: also called GP15
- Kd (IL-2Rβ(CD122)): 87.1 nM
- Kd (IL-2Rβ/γ receptor): 136000 nM
- Kd (IL-2Rα(CD25)): 170 nM

B12: IL-2 mutant G438P16 (ligand)
chain: APTSSSTRKTQLQLEHLMSDLQMILNGINNYKNPKLTEMLEFKFYMPWKATELKHLQCLEEELKPLEEVLNLAQSKNFHLRARDLIDNINVIVLELKGSETTFMCEYADETATIVEFLNRWITFAQSIISTLT
notes: also called GP16
- Kd (IL-2Rβ(CD122)): 142 nM
- Kd (IL-2Rα(CD25)): 353 nM

B13: IL-2 mutant G438P17 (ligand)
chain: APTSSSTRKTQLQLEHLMSDLQMILNGINNYKNPKLTRMLTFKFYMPWKATELKHLQCLEEELKPLEEVLNLAQSKNFHLDTEDLIDNINVIVLELKGSETTFMCEYADETATIVEFLNRWITFAQSIISTLT
notes: also called GP17
- Kd (IL-2Rβ(CD122)): 61 nM
- Kd (IL-2Rα(CD25)): 94.9 nM

B14: IL-2 mutant G493 (ligand)
chain: APTSSSTRKTQLQLEHLLLDLQMILNGINNYKNPKLTRMLTFWFYMPWKATELWHLQCLEEELHPLEEVLNLAQSKNFHLRPRDLISNINVIVLELEGSETTFMCEYADETATIVEFLNRWITFAQSIISTLT
- binding result (IL-2Rβ(CD122)): no binding
- binding result (IL-2Rα(CD25)): no binding

B15: IL-2 mutant G496 (ligand)
chain: APTSSSTRKTQLQLEHLLLDLQMILNGINNYKNPKLTRMLTFWFYMPWKATELWHLQCLEEELHPLEEVLNLAQSKNFHLRPRDLISNINVIVLELRGSETTFMCEYADETATIVEFLNRWITFAQSIISTLT
- binding result (IL-2Rβ(CD122)): no binding
- binding result (IL-2Rα(CD25)): no binding

B16: IL-2 mutant G498 (ligand)
chain: APTSSSTRKTQLQLEHLLLDLQMILNGINNYKNPKLTRMLTFWFYMPWKATELWHLQCLEEELHPLEEVLNLAQSKNFHLRPRDLISNINVIVLELFGSETTFMCEYADETATIVEFLNRWITFAQSIISTLT
- binding result (IL-2Rβ(CD122)): no binding
- binding result (IL-2Rα(CD25)): no binding

B17: IL-2 mutant G438P12 (ligand)
chain: APTSSSTRKTQLQLEHLMSDLQMILNGINNYKNPKLTRMLTFKFYMPRKATELKHLQCLEEELKPLEEVLNLAQSKNFHLRPRDLISNINVIVLELKGSETTFMCEYADETATIVEFLNRWITFAQSIISTLT
- Kd (IL-2Rβ(CD122)): 7.29 nM
- Kd (IL-2Rα(CD25)): 8.48 nM

B18: IL-2 mutant G438P19 (ligand)
chain: PTSSSTRKTQLQLEHLMSDLQMILNGINNYKNPKLTRMLTFKFYMPWKATELKHLQCLEEELKPLEEVLNLAQSKNFHLRPRDLISNINVIVLELKGSETTFMCEYADETATIVEFLNRWITFSQSSSQH
notes: Printed: lack of the first amino acid A, K8R/L18M/L19S/K48W/A125S, IISTLT from position 128 mutated to SSQH; also called GP19
- Kd (IL-2Rβ(CD122)): 12.9 nM
- Kd (IL-2Rα(CD25)): 38.6 nM
